Legend:
Conditions in all cases: both partners purified
ubiquitin (Ub) [1] = molecular target: T1, ubiquitin (Ub) (UniProt P0CG48 1-76); test: ITC; Ub (1 mM stock) injected into USP13-ZnF, USP5-ZnF or its mutants (50 µM), 25 injections of 8 µL; 50 mM Tris, 150 mM NaCl, pH 7.5, 1 mM DTT; 25°C
T1 construct: ubiquitin, free monomer; only a GST-fused Ub construct is named in the methods; also called free Ub; monoUb

ubiquitin (Ub) [2] = molecular target: T1, ubiquitin (Ub); test: NMR titration; 15N-labeled USP13-UBA12 or USP5-ZnF (~0.2 mM) titrated with Ub (or ISG15), 1H-15N HSQC spectra; 20 mM phosphate, 50 mM NaCl, pH 6.5
linear diUb = molecular target: T2, linear diUb (UniProt P0CG48 1-76; P0CG48 1-76); test: ITC; USP13-UBA12 (1.25 mM stock) injected into K63-, K48-, linear diUb (0.1 mM) or monoUb (0.2 mM), 25 injections of 1.5 µL; 50 mM Tris, 150 mM NaCl, pH 7.5; 25°C
T2 construct: ubiquitin, first unit of the linear (head-to-tail) dimer; ubiquitin, second unit of the linear (head-to-tail) dimer; also called linear linked diUb

GST-fused Ub = molecular target: T3, GST-fused Ub (UniProt P0CG48 1-76); test: pull-down; GST-fused Ub, ISG15, SUMO1 or SUMO2 loaded on glutathione agarose, USP13 or USP13-UBA12 (~100 µM) added; 1-hr incubation, washed three times, eluted by GSH buffer; SDS-PAGE with Coomassie blue staining
T3 construct: ubiquitin (Ub); cDNA inserted into pGEX-4T-3; also called GST-Ub; source: E. coli BL21, purified (glutathione agarose)

B1: USP5-ZnF R222W (domain or fragment, human, UniProt P45974 169-289, looked up)
chain: WDGEVRQVSKHAFSLKQLDNPARIPPCGWKCSKCDMRENLWLNLTDGSILCGRWYFDGSGGNNHAVEHYRETGYPLAVKLGTITPDGADVYSYDEDDMVLDPSLAEHLSHFGIDMLKMQKT
notes: USP5, human, ZnF domain, residues 169-289, point mutant in pET-M; source: E. coli BL21, purified (Ni-NTA agarose, size-exclusion chromatography)
Kd (ubiquitin (Ub) [1]): 9.1 µM

B2: USP5-ZnF R222W/Y223F (domain or fragment, human, UniProt P45974 169-289, looked up)
chain: WDGEVRQVSKHAFSLKQLDNPARIPPCGWKCSKCDMRENLWLNLTDGSILCGRWFFDGSGGNNHAVEHYRETGYPLAVKLGTITPDGADVYSYDEDDMVLDPSLAEHLSHFGIDMLKMQKT
notes: as for B1
Kd (ubiquitin (Ub) [1]): 16 µM

B3: tandem UBA domains of USP13 (USP13-UBA12, residues 652-776) (domain or fragment, human, UniProt Q92995 652-776, looked up)
chain: DIDESSVMQLAEMGFPLEACRKAVYFTGNMGAEVAFNWIIVHMEEPDFAEPLTMPGYGGAASAGASVFGASGLDNQPPEEIVAIITSMGFQRNQAIQALRATNNNLERALDWIFSHPEFEEDSDF
notes: USP13, human, tandem UBA domains (UBA1 and UBA2), residues 652-776, cloned into pET-32M; 15N-labelled in the NMR titrations; source: E. coli BL21, purified (Ni-NTA agarose, size-exclusion chromatography)
binding result (ubiquitin (Ub) [2]): binds
binding result (linear diUb): binds
binding result (GST-fused Ub): binds

B4: USP13 (residues 21-863) (enzyme, human, UniProt Q92995 21-863, looked up)
chain: AGDIGELLVPHMPTIRVPRSGDRVYKNECAFSYDSPNSEGGLYVCMNTFLAFGREHVERHFRKTGQSVYMHLKRHVREKVRGASGGALPKRRNSKIFLDLDTDDDLNSDDYEYEDEAKLVIFPDHYEIALPNIEELPALVTIACDAVLSSKSPYRKQDPDTWENELPVSKYANNLTQLDNGVRIPPSGWKCARCDLRENLWLNLTDGSVLCGKWFFDSSGGNGHALEHYRDMGYPLAVKLGTITPDGADVYSFQEEEPVLDPHLAKHLAHFGIDMLHMHGTENGLQDNDIKLRVSEWEVIQESGTKLKPMYGPGYTGLKNLGNSCYLSSVMQAIFSIPEFQRAYVGNLPRIFDYSPLDPTQDFNTQMTKLGHGLLSGQYSKPPVKSELIEQVMKEEHKPQQNGISPRMFKAFVSKSHPEFSSNRQQDAQEFFLHLVNLVERNRIGSENPSDVFRFLVEERIQCCQTRKVRYTERVDYLMQLPVAMEAATNKDELIAYELTRREAEANRRPLPELVRAKIPFSACLQAFSEPENVDDFWSSALQAKSAGVKTSRFASFPEYLVVQIKKFTFGLDWVPKKFDVSIDMPDLLDINHLRARGLQPGEEELPDISPPIVIPDDSKDRLMNQLIDPSDIDESSVMQLAEMGFPLEACRKAVYFTGNMGAEVAFNWIIVHMEEPDFAEPLTMPGYGGAASAGASVFGASGLDNQPPEEIVAIITSMGFQRNQAIQALRATNNNLERALDWIFSHPEFEEDSDFVIEMENNANANIISEAKPEGPRVKDGSGTYELFAFISHMGTSTMSGHYICHIKKEGRWVIYNDHKVCASERPPKDLGYMYFYRRIPS
notes: Ubiquitin-specific protease 13 (USP13, isoT3), human, residues 21-863, cloned into pET-32M; The results call it full-length USP13; the methods give residues 21-863; also called full-length USP13; source: E. coli BL21, purified (Ni-NTA agarose, size-exclusion chromatography)
binding result (GST-fused Ub): binds

B5: ZnF domain of USP5 (USP5-ZnF, residues 169-289), wild type (domain or fragment, human, UniProt P45974 169-289, looked up)
chain: WDGEVRQVSKHAFSLKQLDNPARIPPCGWKCSKCDMRENLWLNLTDGSILCGRRYFDGSGGNNHAVEHYRETGYPLAVKLGTITPDGADVYSYDEDDMVLDPSLAEHLSHFGIDMLKMQKT
notes: USP5 (isopeptidase T, isoT), human, zinc finger (ZnF) domain, residues 169-289, cloned into pET-M; also called WT; source: E. coli BL21, purified (Ni-NTA agarose, size-exclusion chromatography)
Kd (ubiquitin (Ub) [1]): 2.3 µM

B6: USP5-ZnF R221K (domain or fragment, human, UniProt P45974 169-289, looked up)
chain: WDGEVRQVSKHAFSLKQLDNPARIPPCGWKCSKCDMRENLWLNLTDGSILCGKRYFDGSGGNNHAVEHYRETGYPLAVKLGTITPDGADVYSYDEDDMVLDPSLAEHLSHFGIDMLKMQKT
notes: as for B1
Kd (ubiquitin (Ub) [1]): 100 µM

B7: USP5-ZnF Y261F (domain or fragment, human, UniProt P45974 169-289, looked up)
chain: WDGEVRQVSKHAFSLKQLDNPARIPPCGWKCSKCDMRENLWLNLTDGSILCGRRYFDGSGGNNHAVEHYRETGYPLAVKLGTITPDGADVYSFDEDDMVLDPSLAEHLSHFGIDMLKMQKT
notes: as for B1
Kd (ubiquitin (Ub) [1]): 88 µM

B8: USP5-ZnF Y223F (domain or fragment, human, UniProt P45974 169-289, looked up)
chain: WDGEVRQVSKHAFSLKQLDNPARIPPCGWKCSKCDMRENLWLNLTDGSILCGRRFFDGSGGNNHAVEHYRETGYPLAVKLGTITPDGADVYSYDEDDMVLDPSLAEHLSHFGIDMLKMQKT
notes: as for B1
Kd (ubiquitin (Ub) [1]): 6.4 µM

Source: PMC3247260, “Domain Analysis Reveals That a Deubiquitinating Enzyme USP13 Performs Non-Activating Catalysis for Lys63-Linked Polyubiquitin” (PLoS ONE, 2011)
